# Reference: patent publication US7572450
# Side chains are listed from the residue outwards. Ends that are not written are not given here. maleimide = maleimide-activated rabbit IgG carrier, to which the peptide is conjugated through its cysteine; rabbit IgG = rabbit IgG carrier (maleimide-activated), conjugated to the peptide
# Target: AD7C-NTP neural thread protein (purified recombinant AD7C-NTP)
# Assay: cell-based or functional assay
row,Binder,"reduction in tissue necrosis (rat injection sites, histopathology at 24 hours)"
1,LHARLCLANFCGRNRV (also: conjugated through a cysteine to maleimide-activated rabbit IgG) [Harlil sequence NTP-1],> 95%
2,"DNTHHARLIL (also: conjugated to maleimide-activated rabbit IgG, mode not given here) [Harlil sequence NTP-7]",> 95%
3,C([maleimide-rabbit IgG])ARYRTGHHARLM [Harlil sequence NTP-3],> 95%
